Changes are numbered by the printed parent chain. Numbers in names are those of the source.
B1: human NLRP10 (aa 4-655) (natural protein)
chain: AKARKPREALLWALSDLEENDFKKLKFYLRDMTLSEGQPPLARGELEGLIPVDLAELLISKYGEKEAVKVVLKGLKVMNLLELVDQLSHICLHDYREVYREHVRCLEEWQEAGVNGRYNQVLLVAKPSSESPESLACPFPEQELESVTVEALFDSGEKPSLAPSLVVLQGSAGTGKTTLARKMVLDWATGTLYPGRFDYVFYVSCKEVVLLLESKLEQLLFWCCGDNQAPVTEILRQPERLLFILDGFDELQRPFEEKLKKRGLSPKESLLHLLIRRHTLPTCSLLITTRPLALRNLEPLLKQARHVHILGFSEEERARYFSSYFTDEKQADRAFDIVQKNDILYKACQVPGICWVVCSWLQGQMERGKVVLETPRNSTDIFMAYVSTFLPPDDDGGCSELSRHRVLRSLCSLAAEGIQHQRFLFEEAELRKHNLDGPRLAAFLSSNDYQLGLAIKKFYSFRHISFQDFFHAMSYLVKEDQSRLGKESRREVQRLLEVKEQEGNDEMTLTMQFLLDISKKDSFSNLELKFCFRISPCLAQDLKHFKEQMESMKHNRTWDLEFSLYEAKIKNLVKGIQMNNVSFKIKHSNEKKSQSQNLFSVKSSLSHGPKEEQKCPSVHGQKEGKDNIAGTQKEASTGKGRGTEETPKNTYI
B2: Walker A mutant human NLRP10 (aa 4-655 K179A) (natural protein)
chain: B1 chain with K176A

Target: the molecule itself
Experiment: SEC

Protein	binding result
B1	binds
B2	binds
